Starred links: 1 amine or outer side, 2 acyl side, 3 side chain; linkers in the order of their positions; H or OH if unused. Non-standard residues stand in square brackets, D forms with d. Groups on a side chain read outwards from the residue. Primed or numbered codes have the meaning given here. No end group written: not given here. *: point of attachment. C20 diacid = O=C(O)CCCCCCCCCCCCCCCCCCC(=O)*; γGlu = O=C(O)[C@H](CCC(=O)[*:2])N[*:1]; NMeY = CN[C@@H](Cc1ccc(O)cc1)C(=O)O; Stearoyl = CCCCCCCCCCCCCCCCCC(=O)*; αMeF = C[C@](N)(Cc1ccccc1)C(=O)O; Lauroyl = CCCCCCCCCCCC(=O)*; dIva = CC[C@@](C)(N)C(=O)O; Iva = CC[C@](C)(N)C(=O)O; PEG2′ = not defined here; PEG3′ = not defined here; Aib = CC(C)(N)C(=O)O
Tests used:
[1] = target: T1, human GIPR (human), P48546
T1 chain: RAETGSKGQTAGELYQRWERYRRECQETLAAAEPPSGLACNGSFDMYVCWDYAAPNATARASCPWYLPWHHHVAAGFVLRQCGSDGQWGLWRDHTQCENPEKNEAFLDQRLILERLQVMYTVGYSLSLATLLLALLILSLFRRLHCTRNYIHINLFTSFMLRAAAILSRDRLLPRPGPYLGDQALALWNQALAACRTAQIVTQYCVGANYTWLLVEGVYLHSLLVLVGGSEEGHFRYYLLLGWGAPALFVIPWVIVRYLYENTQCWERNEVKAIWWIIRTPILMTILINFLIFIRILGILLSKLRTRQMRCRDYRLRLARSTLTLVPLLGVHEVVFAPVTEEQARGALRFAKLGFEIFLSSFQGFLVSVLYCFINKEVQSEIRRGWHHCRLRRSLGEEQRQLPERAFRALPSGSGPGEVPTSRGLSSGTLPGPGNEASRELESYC

[2] = target: T2, human GLP-1R (human), P43220
T2 chain: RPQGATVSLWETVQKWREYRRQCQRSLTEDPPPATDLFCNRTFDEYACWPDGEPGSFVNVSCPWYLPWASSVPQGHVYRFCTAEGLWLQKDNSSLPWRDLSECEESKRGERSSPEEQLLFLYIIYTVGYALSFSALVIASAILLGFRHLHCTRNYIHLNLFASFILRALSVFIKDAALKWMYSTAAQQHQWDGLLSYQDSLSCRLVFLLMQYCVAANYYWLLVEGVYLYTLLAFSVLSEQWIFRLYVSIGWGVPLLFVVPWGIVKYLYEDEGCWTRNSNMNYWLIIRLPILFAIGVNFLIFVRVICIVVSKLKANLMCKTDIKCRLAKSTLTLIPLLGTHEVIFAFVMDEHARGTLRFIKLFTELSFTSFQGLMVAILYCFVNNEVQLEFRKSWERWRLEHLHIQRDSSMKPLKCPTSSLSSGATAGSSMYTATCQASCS

[3] = target: T1, human GIPR (human), P48546; assay: [125I]GIP displacement, hGIPR VLP

Binder | Agonist activity (EC50, M) [1] [M] | Agonist activity (EC50, M) [2] [M] | IC50 [3] [nM]
[NMeY][Aib]EGTFISDYSI[dIva]LDRIAQ[Aib]N[αMeF]VNWLLAQRPSSGAPPPSR (ends and bridges not checked) [Compound 99] | 2.9e-12 | > 1e-06 | 2.1
Y[Aib]EGTVVSLYSK([Gly-Gly-Gly-Gly-C20 diacid])[Aib]LDRQAQ[Aib]EFVK(Ac)WLLAQR (ends and bridges not checked) [Compound 260] | 2.6e-10 | > 1e-06 | 15
[NMeY][Aib]EGTFISDYSI[dIva]LDR[Aib]AQ[Aib]N[αMeF]VNWLLAQRPSSGAPPPSR (not fully specified (N-terminus, C-terminus); ends and bridges not checked) [Compound 106] | 1.7e-12 | > 1e-06 | 1.6
[NMeY][Aib]EGTFISDYSIALDRIAQ[Aib]SFVNW[Iva]LAQRPSSGAPPPSR (ends and bridges not checked) [Compound 124] | 1.7e-12 | > 1e-06 | 1.6
Me-Y[Aib]EGTFISDYSIALDRIAQQN[αMeF]VNWLLAQRPSSGAPPPSR (not fully specified (residue 1, C-terminus); ends and bridges not checked) [Compound 134] | 2.3e-12 | > 1e-06 | 1.2
Me-Y[Aib]EGTFISDYSIALDRIAQ[Aib]SFVNWLLAQRPSSGAPPPSR (not fully specified (residue 1, C-terminus); ends and bridges not checked) [Compound 136] | 2.2e-12 | 2.1e-07 | 2.1
[NMeY][Aib]EGTFISDYSIALDR[Aib]AQQSFVNWLLAQRPSSGAPPPSR (not fully specified (N-terminus, C-terminus); ends and bridges not checked) [Compound 137] | 1.7e-12 | > 1e-06 | 0.98
Ac-Y[Aib]EGTFISDYSI[dIva]LDRIAQ[Aib]NFVNW[Iva]LAQRPSSGAPPPSR (ends and bridges not checked) [Compound 152] | 2.8e-12 | > 1e-06 | 2.1
Y[Aib]EGTVVSLYSK([PEG(2)-Pal])[Aib]LDKQAQ[Aib]EFVKWLLAQK (ends and bridges not checked) [Compound 158] | 9.9e-11 | > 1e-06 | 3.4
Y[Aib]EGTVVSLYSK(Pal)[Aib]LDKQAQ[Aib]EFVKWLLAQK (ends and bridges not checked) [Compound 159] | 7.8e-10 | > 1e-06 | 8.1
Y[Aib]EGTVVSLYSI[Aib]LDKQAQ[Aib]EFVKWLLAQKK([PEG(2)-Pal]) (ends and bridges not checked) [Compound 160] | 9.5e-11 | > 1e-06 | 4.1
Y[Aib]EGTVVSLYSI[Aib]LDKQAQ[Aib]EFVKWLLAQKK(Pal) (ends and bridges not checked) [Compound 161] |  | > 1e-06 | 24
Y[Aib]EGTVVSLYSI[Aib]LDKQAQ[Aib]EFVKWLLKGK(Pal) (ends and bridges not checked) [Compound 163] | 6.6e-09 | > 1e-06 | 50
Y[Aib]EGTFISDYSK([PEG(2)-Ac])ALDRIHQQDFVNWLLAQRPSSGAPPPS (ends and bridges not checked) [Compound 173] | 4.4e-12 | > 1e-06 | 7.1
Y[Aib]EGTFISDYSK([PEG(2)-Stearoyl])ALDRIHQQDFVNWLLAQRPSSGAPPPS (ends and bridges not checked) [Compound 176] | 1.9e-11 | > 1e-06 | 3.4
Y[Aib]EGTFISDYSK([PEG(2)-Pal])ALDRIHQQDFVNWLLAQRPSSGAPPPSR (ends and bridges not checked) [Compound 177] | 7.2e-12 | > 1e-06 | 2.4
Y[Aib]EGTFISDYSK([PEG(2)-Ac])ALDRIHQQDFVNWLLAQRPSSGAPPPSR (ends and bridges not checked) [Compound 178] | 4.2e-12 | > 1e-06 | 3
[NMeY][Aib]EGTFISDYSIALDR[Aib]AQ[Aib]NFVNW[Iva]LAQRPSSGAPPPSR (ends and bridges not checked) [Compound 84] | 1.2e-12 |  | 1.2
Y[Aib]EGTFISDYSK([PEG(2)-Lauroyl])ALDRIHQ[Aib]NFVNWLLAQRPSSGAPPPS (ends and bridges not checked) [Compound 209] | 4.3e-12 | > 1e-06 | 
Y[Aib]EGTFISDYSK([PEG2′-Lauroyl])ALDR[Aib]AQ[Aib]NFVNW[Iva]LAQRPSSGAPPPS (not fully specified (C-terminus); ends and bridges not checked) [Compound 211] | 3.4e-12 | 2.6e-08 | 
Y[Aib]EGTFISDYSK([PEG2′-Lauroyl])ALDR[Aib]AQQD[αMeF]VNWLLAQRPSSGAPPPS (not fully specified (C-terminus); ends and bridges not checked) [Compound 213] | 3.1e-12 | 5.4e-08 | 
Y[Aib]EGTFISDYSK([PEG2′-Lauroyl])ALDRIHQ[Aib]N[αMeF]VNW[Iva]LAQRPSSGAPPPS (not fully specified (C-terminus); ends and bridges not checked) [Compound 216] | 4.8e-12 | 1.5e-07 | 
Y[Aib]EGTFISDYSK([PEG(2)-Lauroyl])ALDR[Aib]HQQSFVNW[Iva]LAQRPSSGAPPPS (not fully specified (C-terminus); ends and bridges not checked) [Compound 224] | 4.2e-12 | > 1e-06 | 
Y[Aib]EGTFISDYSIALDRK([PEG(2)-Pal])HQQDFVNWLLAQRPSSGAPPPS (not fully specified (C-terminus); ends and bridges not checked) [Compound 233] | 3.8e-12 | > 1e-06 | 
Y[Aib]EGTFISDYSIALDRK([PEG(2)-dodec])HQ[Aib]NFVNW[Iva]LAQRPSSGAPPPS (not fully specified (C-terminus); ends and bridges not checked) [Compound 239] | 2.5e-12 | 5e-08 | 
Y[Aib]EGTFISDYSK([PEG3′-PEG3′-γGlu-C20 diacid])ALDR[Aib]HQ[Aib]NFVNW[Iva]LAQRPSSGAPPPS (not fully specified (C-terminus); ends and bridges not checked) [Compound 242] | 6.7e-11 | > 1e-06 | 
